Measurements reported in the supplement of paper PMC5998384.

Columns and labels:
HeLa Kyoto [1] = assay: solubility in G1/S (NP-40 vs SDS abundance) (log2 ratio); higher = more soluble; settings: cell cycle stage: G1/S
HeLa Kyoto [2] = assay: melting temperature (median over replicates), in situ; higher = more thermally stable
HeLa Kyoto [3] = assay: solubility change mitosis vs G1/S (difference of NP-40 vs SDS log2 ratios) (log2 ratio difference); higher = more soluble in mitosis
HeLa Kyoto [4] = assay: thermal stability score vs G1/S (z-score of summed log2 fold changes over temperatures); higher = more thermally stable than in G1/S
[5] = cell cycle stage: early G1 (4.5 h after nocodazole release)
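Wherever melting temperature (median over replicates), in situ is given: HeLa Kyoto cells synchronized by double thymidine or nocodazole block, proteins quantified by TMT10plex mass spectrometry, three independent biological replicates.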
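Wherever solubility change mitosis vs G1/S (difference of NP-40 vs SDS log2 ratios) is given: synchronized HeLa Kyoto cells (double thymidine block for G1/S, nocodazole release for mitosis), protein amounts in NP-40 versus SDS lysates quantified by mass spectrometry, three biological replicates.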
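Wherever solubility in G1/S (NP-40 vs SDS abundance) is given: HeLa Kyoto cells arrested at G1/S by double thymidine block, proteins quantified by TMT10plex mass spectrometry in mild NP-40 versus SDS extracts, three biological replicates.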
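Wherever thermal stability score vs G1/S (z-score of summed log2 fold changes over temperatures) is given: synchronized HeLa Kyoto cells, proteins quantified by TMT10plex mass spectrometry, three biological replicates, mitosis taken 0.5 h after nocodazole release, G1/S directly after double thymidine block.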

Row | Sequence | solubility in G1/S (log2) (HeLa Kyoto [1]) | melting temperature (HeLa Kyoto [2]; cell cycle stage: G1/S) | melting temperature (HeLa Kyoto [2]; cell cycle stage: mitosis) | solubility change mitosis (log2) (HeLa Kyoto [3]) | thermal stability score (HeLa Kyoto [4]; [5]) | thermal stability score (HeLa Kyoto [4]; cell cycle stage: mitosis)
1 | MKEEKEHRPKEKRVTLLTPAGATGSGGGTSGDSSKGEDKQDRNKEKKEALSKVVIRRLPPTLTKEQLQEHLQPMPEHDYFEFFSNDTSLYPHMYARAYINFKNQEDIILFRDRFDGYVFLDNKGQEYPAIVEFAPFQKAAKKKTKKRDTKVGTIDDDPEYRKFLESYATDNEKMTSTPETLLEEIEAKNRELIAKKTTPLLSFLKNKQRMREEKREERRRREIERKRQREEERRKWKEEEKRKRKDIEKLKKIDRIPERDKLKDEPKIKVHRFLLQAVNQKNLLKKPEKGDEKELDKREKAKKLDKENLSDERASGQSCTLPKRSDSELKDEKPKRPEDESGRDYREREREYERDQERILRERERLKRQEEERRRQKERYEKEKTFKRKEEEMKKEKDTLRDKGKKAESTESIGSSEKTEKKEEVVKRDRIRNKDRPAMQLYQPGARSRNRLCPPDDSTKSGDSAAERKQESGISHRKEGGEE [UPF3B] | -0.279 | 50.6 °C | 50.5 °C | 0.245 | 0.0687 | -0.398
2 | MPVFHTRTIESILEPVAQQISHLVIMHEEGEVDGKAIPDLTAPVAAVQAAVSNLVRVGKETVQTTEDQILKRDMPPAFIKVENACTKLVQAAQMLQSDPYSVPARDYLIDGSRGILSGTSDLLLTFDEAEVRKIIRVCKGILEYLTVAEVVETMEDLVTYTKNLGPGMTKMAKMIDERQQELTHQEHRVMLVNSMNTVKELLPVLISAMKIFVTTKNSKNQGIEEALKNRNFTVEKMSAEINEIIRVLQLTSWDEDAWASKDTEAMKRALASIDSKLNQAKGWLRDPSASPGDAGEQAIRQILDEAGKVGELCAGKERREILGTCKMLGQMTDQVADLRARGQGSSPVAMQKAQQVSQGLDVLTAKVENAARKLEAMTNSKQSIAKKIDAAQNWLADPNGGPEGEEQIRGALAEARKIAELCDDPKERDDILRSLGEISALTSKLADLRRQGKGDSPEARALAKQVATALQNLQTKTNRAVANSRPAKAAVHLEGKIEQAQRWIDNPTVDDRGVGQAAIRGLVAEGHRLANVMMGPYRQDLLAKCDRVDQLTAQLADLAARGEGESPQARALASQLQDSLKDLKARMQEAMTQEVSDVFSDTTTPIKLLAVAATAPPDAPNREEVFDERAANFENHSGKLGATAEKAAAVGTANKSTVEGIQASVKTARELTPQVVSAARILLRNPGNQAAYEHFETMKNQWIDNVEKMTGLVDEAIDTKSLLDASEEAIKKDLDKCKVAMANIQPQMLVAGATSIARRANRILLVAKREVENSEDPKFREAVKAASDELSKTISPMVMDAKAVAGNISDPGLQKSFLDSGYRILGAVAKVREAFQPQEPDFPPPPPDLEQLRLTDELAPPKPPLPEGEVPPPRPPPPEEKDEEFPEQKAGEVINQPMMMAARQLHDEARKWSSKPGIPAAEVGIGVVAEADAADAAGFPVPPDMEDDYEPELLLMPSNQPVNQPILAAAQSLHREATKWSSKGNDIIAAAKRMALLMAEMSRLVRGGSGTKRALIQCAKDIAKASDEVTRLAKEVAKQCTDKRIRTNLLQVCERIPTISTQLKILSTVKATMLGRTNISDEESEQATEMLVHNAQNLMQSVKETVREAEAASIKIRTDAGFTLRWVRKTPWYQ [VCL] | 0.182 | 56.4 °C | 55.4 °C | -0.0931 | -1.64 | -1.78
3 | MTEEACRTRSQKRALERDPTEDDVESKKIKMERGLLASDLNTDGDMRVTPEPGAGPTQGLLRATEATAMAMGRGEGLVGDGPVDMRTSHSDMKSERRPPSPDVIVLSDNEQPSSPRVNGLTTVALKETSTEALMKSSPEERERMIKQLKEELRLEEAKLVLLKKLRQSQIQKEATAQKPTGSVGSTVTTPPPLVRGTQNIPAGKPSLQTSSARMPGSVIPPPLVRGGQQASSKLGPQASSQVVMPPLVRGAQQIHSIRQHSSTGPPPLLLAPRASVPSVQIQGQRIIQQGLIRVANVPNTSLLVNIPQPTPASLKGTTATSAQANSTPTSVASVVTSAESPASRQAAAKLALRKQLEKTLLEIPPPKPPAPEMNFLPSAANNEFIYLVGLEEVVQNLLETQGRMSAATVLSREPYMCAQCKTDFTCRWREEKSGAIMCENCMTTNQKKALKVEHTSRLKAAFVKALQQEQEIEQRLLQQGTAPAQAKAEPTAAPHPVLKQVIKPRRKLAFRSGEARDWSNGAVLQASSQLSRGSATTPRGVLHTFSPSPKLQNSASATALVSRTGRHSERTVSAGKGSATSNWKKTPLSTGGTLAFVSPSLAVHKSSSAVDRQREYLLDMIPPRSIPQSATWK [GATAD2A] | 0.481 | 47.3 °C | 50.4 °C | 0.0452 | 0.921 | 3.21
4 | MEAPAAGLFLLLLLGTWAPAPGSASSEAPPLINEDVKRTVDLSSHLAKVTAEVVLAHLGGGSTSRATSFLLALEPELEARLAHLGVQVKGEDEEENNLEVRETKIKGKSGRFFTVKLPVALDPGAKISVIVETVYTHVLHPYPTQITQSEKQFVVFEGNHYFYSPYPTKTQTMRVKLASRNVESYTKLGNPTRSEDLLDYGPFRDVPAYSQDTFKVHYENNSPFLTITSMTRVIEVSHWGNIAVEENVDLKHTGAVLKGPFSRYDYQRQPDSGISSIRSFKTILPAAAQDVYYRDEIGNVSTSHLLILDDSVEMEIRPRFPLFGGWKTHYIVGYNLPSYEYLYNLGDQYALKMRFVDHVFDEQVIDSLTVKIILPEGAKNIEIDSPYEISRAPDELHYTYLDTFGRPVIVAYKKNLVEQHIQDIVVHYTFNKVLMLQEPLLVVAAFYILFFTVIIYVRLDFSITKDPAAEARMKVACITEQVLTLVNKRIGLYRHFDETVNRYKQSRDISTLNSGKKSLETEHKALTSEIALLQSRLKTEGSDLCDRVSEMQKLDAQVKELVLKSAVEAERLVAGKLKKDTYIENEKLISGKRQELVTKIDHILDAL [RPN1] | 0.0559 | 53.2 °C | 53.6 °C | -0.0592 | 1.85 | 2.85
